Laboratory results from patent US20240383985A1 (QURE BIOTECHNOLOGY SHANGHAI, published 2024).
Positions count from the first letter of the chain named. Names and notes keep the numbering of the source.

B1: CD33/CD16A/IL-15 trifunctional fusion protein QP743745 (FC wild-type) (bispecific antibody)
chain 1: not shown
chain 2: not shown
light: DIVMTQSPDSLTVSLGERTTINCKSSQSVLDSSTNKNSLAWYQQKPGQPPKLLLSWASTRESGIPDRFSGSGSGTDFTLTIDSPQPEDSATYYCQQSAHFPITFGQGTRLEIKRTVAAPSVFIFPPSDEQLKSGTASVVCLLNNFYPREAKVQWKVDNALQSGNSQESVTEQDSKDSTYSLSSTLTLSKADYEKHKVYACEVTHQGLSSPVTKSFNRGEC
heavy: QVQLVQSGAEVKKPGESVKVSCKASGYTFTNYGMNWVKQAPGQGLEWMGWINTYTGEPTYADKFQGRVTMTTDTSTSTAYMEIRNLGGDDTAVYYCARWSWSDGYYVYFDYWGQGTSVTVSSASTKGPSVFPLAPSSKSTSGGTAALGCLVKDYFPEPVTVSWNSGALTSGVHTFPAVLQSSGLYSLSSVVTVPSSSLGTQTYICNVNHKPSNTKVDKKVEPKSCDKTHTCPPCPAPELLGGPSVFLFPPKPKDTLMISRTPEVTCVVVDVSHEDPEVKFNWYVDGVEVHNAKTKPREEQYNSTYRVVSVLTVLHQDWLNGKEYKCKVSNKALPAPIEKTISKAKGQPREPQVYTLPPSREEMTKNQVSLSCAVKGFYPSDIAVEWESNGQPENNYKTTPPVLDSDGSFFLVSKLTVDKSRWQQGNVFSCSVMHEALHNRYTQKSLSLSPGK
B2: CD33/CD16A/IL-15 trifunctional fusion protein QP43394340 (FC with L234A/L235A mutation for eliminating function) (bispecific antibody)
chain 1: not shown
chain 2: not shown
light: B1 light
heavy: B1 heavy with L239A, L240A
notes: Four-chain heterodimer, hIgG1 Fc LALA; plasmid names mention Flag and His tags
B3: CD33/CD16A/IL-15 trifunctional fusion protein QP42914285 (FC with L234A/L235A mutation for eliminating function) (bispecific antibody)
light: SYVLTQPSSVSVAPGQTATISCGGHNIGSKNVHWYQQRPGQSPVLVIYQDNKRPSGIPERFSGSNSGNTATLTISGTQAMDEADYYCQVWDNYSVLFGGGTKLTVLRTVAAPSVFIFPPSDEQLKSGTASVVCLLNNFYPREAKVQWKVDNALQSGNSQESVTEQDSKDSTYSLSSTLTLSKADYEKHKVYACEVTHQGLSSPVTKSFNRGEC
heavy: QVQLVQSGAEVKKPGESLKVSCKASGYTFTSYYMHWVRQAPGQGLEWMGIINPSGGSTSYAQKFQGRVTMTRDTSTSTVYMELSSLRSEDTAVYYCARGSAYYYDFADYWGQGTLVTVSSASTKGPSVFPLAPSSKSTSGGTAALGCLVKDYFPEPVTVSWNSGALTSGVHTFPAVLQSSGLYSLSSVVTVPSSSLGTQTYICNVNHKPSNTKVDKKVEPKSCDKTHTCPPCPAPEAAGGPSVFLFPPKPKDTLMISRTPEVTCVVVDVSHEDPEVKFNWYVDGVEVHNAKTKPREEQYNSTYRVVSVLTVLHQDWLNGKEYKCKVSNKALPAPIEKTISKAKGQPREPQVYTLPPSREEMTKNQVSLSCAVKGFYPSDIAVEWESNGQPENNYKTTPPVLDSDGSFFLVSKLTVDKSRWQQGNVFSCSVMHEALHNRYTQKSLSLSPGKGGSHHHHHH
chain 1: not shown
chain 2: not shown
notes: Four-chain heterodimer: anti-CD16A Fab arm and anti-CD33 Fv-IL-15/IL-15Ra arm
B4: CD33/CD16A bispecific antibody QP4115777778 (FC wild-type) (bispecific antibody, human IgG1, kappa)
chain: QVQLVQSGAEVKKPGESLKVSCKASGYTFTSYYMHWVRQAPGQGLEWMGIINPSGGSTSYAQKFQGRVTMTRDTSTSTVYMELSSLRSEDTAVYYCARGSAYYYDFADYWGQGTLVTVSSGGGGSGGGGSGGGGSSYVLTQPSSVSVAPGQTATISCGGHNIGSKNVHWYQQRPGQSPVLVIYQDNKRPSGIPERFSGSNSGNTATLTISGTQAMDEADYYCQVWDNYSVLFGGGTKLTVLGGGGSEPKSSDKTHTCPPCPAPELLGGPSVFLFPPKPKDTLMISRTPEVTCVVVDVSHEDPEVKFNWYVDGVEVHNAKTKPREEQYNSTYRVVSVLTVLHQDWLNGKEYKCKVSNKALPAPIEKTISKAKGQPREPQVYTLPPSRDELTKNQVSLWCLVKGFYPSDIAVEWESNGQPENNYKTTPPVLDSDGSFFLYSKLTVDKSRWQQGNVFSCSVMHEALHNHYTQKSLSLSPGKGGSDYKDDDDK
heavy: QVQLVQSGAEVKKPGESVKVSCKASGYTFTNYGMNWVKQAPGQGLEWMGWINTYTGEPTYADKFQGRVTMTTDTSTSTAYMEIRNLGGDDTAVYYCARWSWSDGYYVYFDYWGQGTSVTVSSASTKGPSVFPLAPSSKSTSGGTAALGCLVKDYFPEPVTVSWNSGALTSGVHTFPAVLQSSGLYSLSSVVTVPSSSLGTQTYICNVNHKPSNTKVDKKVEPKSCDKTHTCPPCPAPELLGGPSVFLFPPKPKDTLMISRTPEVTCVVVDVSHEDPEVKFNWYVDGVEVHNAKTKPREEQYNSTYRVVSVLTVLHQDWLNGKEYKCKVSNKALPAPIEKTISKAKGQPREPQVYTLPPSREEMTKNQVSLSCAVKGFYPSDIAVEWESNGQPENNYKTTPPVLDSDGSFFLVSKLTVDKSRWQQGNVFSCSVMHEALHNRYTQKSLSLSPGKGGSHHHHHH
light: B1 light
notes: also called QP411577778; CD16A/CD33 bispecific antibody
B5: CD33 antibody IgG1 wt subtype QP41154116 (antibody, V domains shown)
VH: QVQLVQSGAEVKKPGESVKVSCKASGYTFTNYGMNWVKQAPGQGLEWMGWINTYTGEPTYADKFQGRVTMTTDTSTSTAYMEIRNLGGDDTAVYYCARWSWSDGYYVYFDYWGQGTSVTVSS
VL: DIVMTQSPDSLTVSLGERTTINCKSSQSVLDSSTNKNSLAWYQQKPGQPPKLLLSWASTRESGIPDRFSGSGSGTDFTLTIDSPQPEDSATYYCQQSAHFPITFGQGTRLEIKR
notes: IgG1 wild-type control antibody; also called antiCD33 antibody

Target: T1, CD33 naturally expressed on HL60 cells (human, UniProt P20138 18-364)
T1 construct: whole, on cells
T1 sequence (P20138 18-364): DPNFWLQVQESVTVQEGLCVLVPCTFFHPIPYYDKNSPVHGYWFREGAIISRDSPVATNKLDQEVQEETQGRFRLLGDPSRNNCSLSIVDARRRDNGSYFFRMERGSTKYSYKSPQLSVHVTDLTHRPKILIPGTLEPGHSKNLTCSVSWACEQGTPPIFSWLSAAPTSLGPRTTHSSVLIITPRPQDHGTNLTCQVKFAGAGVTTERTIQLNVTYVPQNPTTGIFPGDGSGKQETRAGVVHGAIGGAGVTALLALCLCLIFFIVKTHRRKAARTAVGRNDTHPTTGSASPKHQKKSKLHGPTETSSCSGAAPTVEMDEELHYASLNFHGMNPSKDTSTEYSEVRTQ
Test: flow cytometry on HL60 cells, PE-anti human Fc detection
Description: Experimental method: HL60 cells were cultured in a 5% CO₂ incubator at 37° C. After trypsin digestion, cells were collected and inoculated into 96-well plates at 100,000 cells per well. Then the plate was subjected to blocking on ice for 1 hour with 2% FBS/PBS. The cells were incubated with different concentrations of trifunctional proteins and control protein on ice for 1 hour, washed with PBS for 3 times, and incubated with PE-anti human Fc (1:200 dilution). The cells were washed with PBS for 3 times, and resuspended with 200 μl PBS. The mean fluorescence value was read by FACS and Graphpad prism software was used to analyze the results.

Binder | binding result
B1 | binds
B2 | binds
B3 | binds
B4 | binds
B5 | binds
